The text below walks through data of US20120258099.

In one series the test system is T1, GST-TRIPE32G.
T1 sequence: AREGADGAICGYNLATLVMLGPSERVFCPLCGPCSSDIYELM

The test system of another series is T2, GST-TRIPα.
T2 sequence: T1 sequence with G32E

For the next series, the system named is T3, GST-TRIPT16M/L17S.
T3 sequence: T1 sequence with T16M, L17S, G32E

Where a chain is given by its changes, count along the chain named.

GST [GST: P08515], sequence (P08515 whole entry): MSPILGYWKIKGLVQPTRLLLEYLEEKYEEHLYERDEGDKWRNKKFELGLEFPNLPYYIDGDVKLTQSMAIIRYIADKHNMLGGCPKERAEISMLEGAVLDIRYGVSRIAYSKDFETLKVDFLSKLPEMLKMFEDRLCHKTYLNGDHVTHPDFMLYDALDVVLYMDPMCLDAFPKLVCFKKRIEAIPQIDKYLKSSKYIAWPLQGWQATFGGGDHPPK

In the case of MBP-Tgat (aa 1-255), the “Tgat GEF activity on RhoA, kinetics fluorescence assay (kobs)” value in the series with GST-TRIPE32G is “inhibited Tgat GEF activity in a dose-dependent manner”; in the series on GST [GST: P08515], “GST alone (not shown) ... had no effect”; in the series on GST-TRIPα, “GST-TRIPα, at the same concentrations, had no effect”; in the series on GST-TRIPT16M/L17S, “inhibited Tgat GEF activity in a dose-dependent manner”.
